The supplement of paper PMC10126150
± gives the standard deviation of the averaged measurements.
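Note: ATP exposure 15 min at 22 °C before imaging.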

What follows are sequences tested on ATP (assay: switch fluorescence ratio, 500 uM ATP over buffer (Cy3 cluster intensity, sum of 5 cycles each) (fold (ratio)); higher = stronger signal-on switching upon ATP binding; sequences stand for … in TCGTCGGCAGCGTCAGATGTGTATAAGAGACAGTTTTTTTTTTTTTTTTTTTTTTTTT…TC). Settings: aptamer strand: ATP DNA aptamer (quencher-CACCTGGGGGAGTATTGCGGAGGAAGG + anchor), 100 nM annealed; ATP concentration: 500 uM.
Summary of the method: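 Values give the fluorescence ratio for each switch-domain sequence, averaged from per-cluster ratios of summed target-cycle to summed buffer-cycle Cy3 intensity. The Cy3-labelled switching-strand clusters sat on a modified Illumina MiSeq flow-cell, were annealed to 100 nM quencher-labelled ATP aptamer, and were imaged in selection buffer, then after 15 min with 500 uM ATP at 22 °C. Five cycles ran with NaOH stripping and re-annealing between them, and clusters outside 100-1000 RFU were excluded.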
In the case of GGAACATCTG, the switch fluorescence ratio is reported as 1.007 ± 0.0071.
GGAACATGGG was tested, and the switch fluorescence ratio was 1.004 ± 0.0024.
GGAACCAGGC was tested, and the switch fluorescence ratio was 1.12 ± 0.032.
Sequence GGAACCCAGA has a switch fluorescence ratio of 0.988 ± 0.021.
In the case of GGAACCGGTA, the switch fluorescence ratio is reported as 1.02 ± 0.012.
In the case of GGAACGTGGT, the switch fluorescence ratio is reported as 0.971 ± 0.017.
With GGAACTGTCT the switch fluorescence ratio was 1.01 ± 0.013.
For GGAACTGTGC, the switch fluorescence ratio was 0.948 ± 0.12.
For GGAACTTGTG, the switch fluorescence ratio was 0.9732 ± 0.0075.
Sequence GGAAGAGGAG has a switch fluorescence ratio of 0.983 ± 0.014.
GGAAGCCACG showed a switch fluorescence ratio of 1.06 ± 0.022.
GGAAGGAGAG showed a switch fluorescence ratio of 0.986 ± 0.018.
In the case of GGAAGGAGAT, the switch fluorescence ratio is reported as 1.003 ± 0.0093.
Sequence GGAAGGAGGC has a switch fluorescence ratio of 1.02 ± 0.088.
GGAAGGGAAA was tested, and the switch fluorescence ratio was 0.981 ± 0.029.
For GGAAGGTATG, the switch fluorescence ratio was 1.02 ± 0.071.
Work on GGAAGTGGTC yielded a switch fluorescence ratio of 1.01 ± 0.059.
GGAATAAATG showed a switch fluorescence ratio of 1.021 ± 0.009.
GGAATACGTT showed a switch fluorescence ratio of 1.08 ± 0.061.
Sequence GGAATCAGGA has a switch fluorescence ratio of 0.991 ± 0.011.
GGAATCCGTT showed a switch fluorescence ratio of 1.027 ± 0.0025.
GGAATCTGAT gave a switch fluorescence ratio of 0.996 ± 0.12.
GGAATCTTTT showed a switch fluorescence ratio of 1.08 ± 0.085.
GGAATGAGGA showed a switch fluorescence ratio of 0.99242 ± 0.0004.
GGAATGCTAT showed a switch fluorescence ratio of 0.996 ± 0.013.
In the case of GGAATGGCTT, the switch fluorescence ratio is reported as 0.999 ± 0.0091.
Work on GGAATTGGAT yielded a switch fluorescence ratio of 1 ± 0.025.
Work on GGAATTTAAT yielded a switch fluorescence ratio of 0.998 ± 0.0014.
Work on GGACACAGGC yielded a switch fluorescence ratio of 1.01 ± 0.023.
Sequence GGACAGCGCG has a switch fluorescence ratio of 1 ± 0.07.
GGACATATTA was tested, and the switch fluorescence ratio was 1 ± 0.028.
In the case of GGACATTGG, the switch fluorescence ratio is reported as 1.03 ± 0.02.
GGACCAAGTG showed a switch fluorescence ratio of 1.03 ± 0.025.
GGACCCGCCG showed a switch fluorescence ratio of 1.025 ± 0.0016.
Work on GGACCCTAAC yielded a switch fluorescence ratio of 1.08 ± 0.062.
Sequence GGACCGGGGT has a switch fluorescence ratio of 0.966 ± 0.034.
For GGACGAAGGG, the switch fluorescence ratio was 1.09 ± 0.018.
In the case of GGACGATTTG, the switch fluorescence ratio is reported as 1.05 ± 0.054.
Sequence GGACGCATAA has a switch fluorescence ratio of 3.51 ± 1.3.
GGACGGGAAC gave a switch fluorescence ratio of 1.13 ± 0.055.
For GGACGGGGGG, the switch fluorescence ratio was 1.01 ± 0.056.
GGACGGGGTC was tested, and the switch fluorescence ratio was 1.01 ± 0.013.
GGACGGGGTT showed a switch fluorescence ratio of 0.97 ± 0.019.
For GGACGTCTGA, the switch fluorescence ratio was 1.02 ± 0.041.
GGACGTTGGT was tested, and the switch fluorescence ratio was 1.02 ± 0.022.
Work on GGACTAGCTT yielded a switch fluorescence ratio of 1.03 ± 0.032.
Sequence GGACTATGCT has a switch fluorescence ratio of 0.962 ± 0.011.
GGACTATGGT showed a switch fluorescence ratio of 0.981 ± 0.014.
For GGACTCTGGG, the switch fluorescence ratio was 0.966 ± 0.058.
GGACTTAGAT was tested, and the switch fluorescence ratio was 1.02 ± 0.039.
GGACTTCTTG showed a switch fluorescence ratio of 0.932 ± 0.045.
Work on GGACTTTCGT yielded a switch fluorescence ratio of 0.993 ± 0.015.
In the case of GGACTTTTCA, the switch fluorescence ratio is reported as 0.96 ± 0.014.
GGAGAAGAGA showed a switch fluorescence ratio of 0.9875 ± 0.004.
Sequence GGAGAAGGGT has a switch fluorescence ratio of 0.9967 ± 0.0047.
Sequence GGAGACCTTT has a switch fluorescence ratio of 1.03 ± 0.041.
With GGAGACGGTT the switch fluorescence ratio was 1 ± 0.051.
With GGAGACGTTA the switch fluorescence ratio was 1.02 ± 0.052.
With GGAGAGCGCG the switch fluorescence ratio was 0.976 ± 0.067.
For GGAGAGGACG, the switch fluorescence ratio was 1.07 ± 0.09.
Sequence GGAGAGGGCT has a switch fluorescence ratio of 1.01 ± 0.024.
Work on GGAGAGGGGC yielded a switch fluorescence ratio of 0.996 ± 0.091.
GGAGAGGGGG gave a switch fluorescence ratio of 0.982 ± 0.027.
With GGAGAGGTTT the switch fluorescence ratio was 1.05 ± 0.059.
GGAGATAGGT showed a switch fluorescence ratio of 1.04 ± 0.038.
With GGAGCCCGGT the switch fluorescence ratio was 1.01 ± 0.029.
Work on GGAGCCTGGT yielded a switch fluorescence ratio of 1.01 ± 0.022.
With GGAGCGGGGG the switch fluorescence ratio was 1.02 ± 0.014.
GGAGCTTTCA showed a switch fluorescence ratio of 1.05 ± 0.088.
GGAGGAAAGT was tested, and the switch fluorescence ratio was 1 ± 0.029.
With GGAGGAGAGG the switch fluorescence ratio was 1.01 ± 0.04.
In the case of GGAGGAGCTG, the switch fluorescence ratio is reported as 0.95 ± 0.042.
For GGAGGAGTTT, the switch fluorescence ratio was 1.65 ± 0.92.
Sequence GGAGGCCATG has a switch fluorescence ratio of 0.967 ± 0.01.
For GGAGGCGGGG, the switch fluorescence ratio was 1.08 ± 0.18.
GGAGGGACGG gave a switch fluorescence ratio of 1.029 ± 0.009.
Sequence GGAGGGAGGG has a switch fluorescence ratio of 1.02 ± 0.059.
GGAGGGCAGG gave a switch fluorescence ratio of 0.9882 ± 0.0096.
GGAGGGCCTG gave a switch fluorescence ratio of 0.986 ± 0.013.
GGAGGGGAAG was tested, and the switch fluorescence ratio was 1.07 ± 0.14.
With GGAGGGGAGT the switch fluorescence ratio was 0.999 ± 0.014.
With GGAGGGGATC the switch fluorescence ratio was 0.998 ± 0.022.
With GGAGGGGGGA the switch fluorescence ratio was 1.09 ± 0.24.
Sequence GGAGGGTGTC has a switch fluorescence ratio of 0.988 ± 0.044.
GGAGGTCTAC showed a switch fluorescence ratio of 1.03 ± 0.014.
Sequence GGAGTAGCAG has a switch fluorescence ratio of 1.02 ± 0.074.
In the case of GGAGTCATGG, the switch fluorescence ratio is reported as 1.045 ± 0.0073.
Work on GGAGTCCAGG yielded a switch fluorescence ratio of 1.15 ± 0.032.
For GGAGTCCGTT, the switch fluorescence ratio was 1.02 ± 0.046.
Sequence GGAGTCGTTG has a switch fluorescence ratio of 0.968 ± 0.011.
With GGAGTCTTGT the switch fluorescence ratio was 1.01 ± 0.03.
Work on GGAGTGATTT yielded a switch fluorescence ratio of 1 ± 0.017.
Sequence GGAGTGGGAT has a switch fluorescence ratio of 1.03 ± 0.034.
In the case of GGAGTGTTGG, the switch fluorescence ratio is reported as 1.002 ± 0.0051.
Work on GGAGTTAGGC yielded a switch fluorescence ratio of 1 ± 0.04.
Sequence GGAGTTCAGG has a switch fluorescence ratio of 0.9905 ± 0.0024.
Work on GGAGTTTAAA yielded a switch fluorescence ratio of 0.999 ± 0.043.
Work on GGATAAAAAT yielded a switch fluorescence ratio of 1.02 ± 0.025.
GGATAAATGC gave a switch fluorescence ratio of 1.02 ± 0.043.
Sequence GGATAACGGG has a switch fluorescence ratio of 1.02 ± 0.023.
